These are literature values, as cited in paper PMC6451932.

The data set has as its target fibrinogen β peptide (Fgβ) (Homo sapiens) (UniProt P02675).

Take SdrG (from UniProt Q9KI13): the Kd (in general, a measure of binding affinity in units of concentration) is 300 nM.
